{"source": "IntAct's records for PubMed 29789297", "parents": {"B1": {"name": "Casein kinase I isoform alpha (Homo sapiens), P48729 (parent)", "chain": "MASSSGSKAEFIVGGKYKLVRKIGSGSFGDIYLAINITNGEEVAVKLESQKARHPQLLYESKLYKILQGGVGIPHIRWYGQEKDYNVLVMDLLGPSLEDLFNFCSRRFTMKTVLMLADQMISRIEYVHTKNFIHRDIKPDNFLMGIGRHCNKLFLIDFGLAKKYRDNRTRQHIPYREDKNLTGTARYASINAHLGIEQSRRDDMESLGYVLMYFNRTSLPWQGLKAATKKQKYEKISEKKMSTPVEVLCKGFPAEFAMYLNYCRGLRFEEAPDYMYLRQLFRILFRTLNHQYDYTFDWTMLKQKAAQQAASSSGQGQQAQTPTGKQTDKTKSNMKGF", "partner": "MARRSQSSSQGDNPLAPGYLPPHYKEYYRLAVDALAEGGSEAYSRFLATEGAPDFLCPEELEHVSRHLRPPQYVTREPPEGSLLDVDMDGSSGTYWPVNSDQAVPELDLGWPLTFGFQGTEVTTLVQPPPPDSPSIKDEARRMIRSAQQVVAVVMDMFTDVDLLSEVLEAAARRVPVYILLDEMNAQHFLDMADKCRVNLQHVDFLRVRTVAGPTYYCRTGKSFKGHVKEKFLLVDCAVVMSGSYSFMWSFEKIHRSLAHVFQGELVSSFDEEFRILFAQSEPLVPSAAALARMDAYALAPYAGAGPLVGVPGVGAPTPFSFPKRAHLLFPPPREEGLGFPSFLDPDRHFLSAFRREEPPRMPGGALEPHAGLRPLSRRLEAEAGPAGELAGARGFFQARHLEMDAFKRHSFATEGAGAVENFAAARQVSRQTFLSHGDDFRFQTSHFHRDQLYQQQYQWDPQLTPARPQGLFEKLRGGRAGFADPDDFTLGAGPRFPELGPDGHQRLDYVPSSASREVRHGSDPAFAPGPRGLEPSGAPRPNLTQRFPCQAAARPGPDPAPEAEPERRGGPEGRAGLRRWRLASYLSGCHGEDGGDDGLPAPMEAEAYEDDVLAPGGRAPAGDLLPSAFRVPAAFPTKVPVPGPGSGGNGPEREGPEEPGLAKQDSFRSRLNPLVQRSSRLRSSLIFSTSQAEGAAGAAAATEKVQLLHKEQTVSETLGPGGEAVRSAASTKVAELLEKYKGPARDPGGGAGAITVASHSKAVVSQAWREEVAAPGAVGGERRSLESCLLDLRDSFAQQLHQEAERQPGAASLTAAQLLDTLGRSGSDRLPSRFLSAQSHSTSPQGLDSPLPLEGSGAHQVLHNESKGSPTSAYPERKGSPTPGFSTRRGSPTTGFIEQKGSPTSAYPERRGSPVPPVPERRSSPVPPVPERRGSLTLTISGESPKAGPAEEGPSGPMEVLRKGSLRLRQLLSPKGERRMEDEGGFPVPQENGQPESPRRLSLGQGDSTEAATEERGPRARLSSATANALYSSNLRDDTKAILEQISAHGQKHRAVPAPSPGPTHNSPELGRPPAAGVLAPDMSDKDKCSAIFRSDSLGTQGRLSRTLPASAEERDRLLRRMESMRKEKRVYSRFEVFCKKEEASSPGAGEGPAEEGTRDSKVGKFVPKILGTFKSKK"}, "B2": {"name": "Casein kinase I isoform alpha (Homo sapiens), P48729 (parent)", "chain": "B1 chain"}, "B3": {"name": "Protein FAM83H (Homo sapiens), Q6ZRV2 (parent)", "chain": "B1 partner"}, "B4": {"name": "Protein FAM83C (Homo sapiens), Q9BQN1 (parent)", "chain": "MFGGPGPGVLGAQGMAGPLRGRVEELKLPWWRESSPLVLRHSEAARLAADALLERGEAAYLRVISEERELPFLSALDVDYMTSHVRGGPELSEAQGQEASGPDRLSLLSEVTSGTYFPMASDIDPPDLDLGWPEVPQATGFSPTQAVVHFQRDKAKNIKDLLRFLFSQAHTVVAVVMDIFTDMELLCDLMEASSRRGVPVYLLLAQEHLRHFLEMCYKMDLNGEHLPNMRVRSTCGDTYCSKAGRRFTGQALEKFVLIDCEQVVAGSYSFTWLCSQAHTSMVLQLRGRIVEDFDREFRCLYAESQPVEGFCGGEDPLSPRALRPPPVALAFRPDVPSPTSSLPSSTSLSSIKQSPLMGRSSYLALPGGGDCSDTGVVSSSLGPARREASGQPSLHRQLSDPNHGSPPGLYRANLGKLGAYPWSQSSPALNHNSTSPLTLAVGSPLLPRSRPLLQFHRGAPALSRFPENGLPGSQEPSPLRGRWVPGTTLETVEEKEKKASPSQSRGQLDLLVPFPRAREVGDPDSGVTPNSGPLRPGEQAPEDRRLSPSQADSQLDLLSRALGTGGAPELGSLRPGDRALEDRRLSLNQSRGQSDLLMQYPKAQGSRVPLETNSSARPARRAPDERRQTLGHSQLDLITKFGPFRGEGPGPNGLPISSPARTAGAGSGDEKRLTLGHSKLDLITKYHQLHGARQGTEPGGPKGGHLNGGNSDLVRDEKRLTLGHSKLDLITKYNKSKFKQLRSRFES"}, "B5": {"name": "Casein kinase I isoform alpha (Homo sapiens), P48729 (parent)", "chain": "B1 chain", "partner": "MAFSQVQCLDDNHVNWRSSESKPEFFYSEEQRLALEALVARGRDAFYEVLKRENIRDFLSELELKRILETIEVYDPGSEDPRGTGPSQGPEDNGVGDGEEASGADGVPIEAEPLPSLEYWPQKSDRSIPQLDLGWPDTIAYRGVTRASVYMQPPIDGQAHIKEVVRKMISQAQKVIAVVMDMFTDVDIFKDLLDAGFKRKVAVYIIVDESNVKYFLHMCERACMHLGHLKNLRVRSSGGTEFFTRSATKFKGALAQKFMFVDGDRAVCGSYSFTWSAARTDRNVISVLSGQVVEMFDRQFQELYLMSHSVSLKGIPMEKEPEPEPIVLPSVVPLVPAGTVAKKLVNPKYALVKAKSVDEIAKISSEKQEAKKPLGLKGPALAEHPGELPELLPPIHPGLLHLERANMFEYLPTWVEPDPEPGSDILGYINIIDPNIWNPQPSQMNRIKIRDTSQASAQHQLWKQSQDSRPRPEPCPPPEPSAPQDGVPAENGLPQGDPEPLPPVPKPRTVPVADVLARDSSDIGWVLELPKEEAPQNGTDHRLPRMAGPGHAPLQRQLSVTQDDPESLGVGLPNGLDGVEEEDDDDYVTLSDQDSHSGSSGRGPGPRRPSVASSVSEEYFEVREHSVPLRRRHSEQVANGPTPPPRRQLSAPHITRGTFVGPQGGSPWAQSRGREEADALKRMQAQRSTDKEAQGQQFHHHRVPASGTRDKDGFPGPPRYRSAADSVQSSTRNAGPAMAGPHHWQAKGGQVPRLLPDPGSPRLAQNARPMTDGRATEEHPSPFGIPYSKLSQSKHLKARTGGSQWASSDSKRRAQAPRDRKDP"}, "B6": {"name": "Protein FAM83F (Homo sapiens), Q8NEG4 (parent)", "chain": "MAESQLNCLDEAHVNEKVTEAQAAFYYCERRRAALEALLGGGEQAYRERLKEEQLRDFLSSPERQALRAAWSPYEDAVPAANARGKSKAKAKAPAPAPAESGESLAYWPDRSDTEVPPLDLGWTDTGFYRGVSRVTLFTHPPKDEKAPHLKQVVRQMIQQAQKVIAVVMDLFTDGDIFQDIVDAACKRRVPVYIILDEAGVKYFLEMCQDLQLTDFRIRNIRVRSVTGVGFYMPMGRIKGTLSSRFLMVDGDKVATGSYRFTWSSSHVDRNLLLLLTGQNVEPFDTEFRELYAISEEVDLYRQLSLAGRVGLHYSSTVARKLINPKYALVSGCRHPPGEMMRWAARQQREAGGNPEGQEEGASGGESAWRLESFLKDLVTVEQVLPPVEPIPLGELSQKDGRMVSHMHRDLKPKSREAPSRNGMGEAARGEAAPARRFSSRLFSRRAKRPAAPNGMASSVSTETSEVEFLTGKRPNENSSADISGKTSPSSAKPSNCVIS"}, "B7": {"name": "Protein FAM83G (Homo sapiens), A6ND36 (parent)", "chain": "B5 partner"}}, "data": [{"variants_of": "B1", "conditions": "with fa83h_human FAM83H", "values": [{"variant": "N141A", "effect of a mutation on the interaction": "with no effect"}]}, {"variants_of": "B2", "conditions": "with fa83e_human FAM83E", "values": [{"variant": "N141A", "effect of a mutation on the interaction": "with no effect"}]}, {"variants_of": "B2", "conditions": "with fa83f_human FAM83F", "values": [{"variant": "N141A", "effect of a mutation on the interaction": "with no effect"}]}, {"variants_of": "B3", "conditions": "with kc1a_human CSNK1A1, P48729", "values": [{"variant": "D236A", "effect of a mutation on the interaction": "disrupting interaction strength"}, {"variant": "F270A", "effect of a mutation on the interaction": "disrupting interaction strength"}]}, {"variants_of": "B3", "conditions": "with kc1e_human CSNK1E", "values": [{"variant": "D236A", "effect of a mutation on the interaction": "disrupting interaction strength"}, {"variant": "F270A", "effect of a mutation on the interaction": "disrupting interaction strength"}]}, {"variants_of": "B4", "conditions": "with kc1a_human CSNK1A1, P48729", "values": [{"variant": "F293A", "effect of a mutation on the interaction": "disrupting interaction strength"}, {"variant": "D259A", "effect of a mutation on the interaction": "disrupting interaction strength"}]}, {"variants_of": "B5", "conditions": "with fa83g_human FAM83G", "values": [{"variant": "N141A", "effect of a mutation on the interaction": "with no effect"}]}, {"variants_of": "B6", "conditions": "with kc1a_human CSNK1A1, P48729", "values": [{"variant": "D250A", "effect of a mutation on the interaction": "disrupting interaction strength"}, {"variant": "F284A", "effect of a mutation on the interaction": "disrupting interaction strength"}]}, {"variants_of": "B7", "conditions": "with kc1a_human CSNK1A1, P48729", "values": [{"variant": "D262A", "effect of a mutation on the interaction": "disrupting interaction strength"}, {"variant": "F300A", "effect of a mutation on the interaction": "disrupting interaction strength"}]}, {"variants_of": "B7", "conditions": "with kc1a_human CSNK1A1, P48729", "remark": "another data set of the same source", "values": [{"variant": "F300A", "effect of a mutation on the interaction": "with no effect"}, {"variant": "F296A;F300A", "effect of a mutation on the interaction": "disrupting interaction strength"}, {"variant": "F296A", "effect of a mutation on the interaction": "disrupting interaction strength"}]}]}
